This note sets out measurements from US20020086323.

The data set addresses T1, LtrA (Lactococcus lactis) (UniProt P0A3U0).
T1 sequence: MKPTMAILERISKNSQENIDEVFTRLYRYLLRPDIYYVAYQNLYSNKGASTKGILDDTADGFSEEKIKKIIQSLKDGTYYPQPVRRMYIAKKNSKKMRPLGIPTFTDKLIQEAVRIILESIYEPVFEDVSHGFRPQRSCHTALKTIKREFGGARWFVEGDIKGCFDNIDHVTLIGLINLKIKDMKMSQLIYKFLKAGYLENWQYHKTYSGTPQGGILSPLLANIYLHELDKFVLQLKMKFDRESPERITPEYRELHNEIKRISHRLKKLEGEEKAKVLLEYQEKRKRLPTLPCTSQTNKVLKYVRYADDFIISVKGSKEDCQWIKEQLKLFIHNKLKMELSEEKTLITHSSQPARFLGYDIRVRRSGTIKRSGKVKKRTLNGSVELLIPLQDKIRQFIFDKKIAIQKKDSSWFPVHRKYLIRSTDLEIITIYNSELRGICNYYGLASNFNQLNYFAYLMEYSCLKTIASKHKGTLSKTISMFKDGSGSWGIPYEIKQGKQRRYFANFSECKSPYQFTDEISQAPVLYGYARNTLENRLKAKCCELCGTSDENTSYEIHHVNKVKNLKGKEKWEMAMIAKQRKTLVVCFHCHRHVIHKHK
In words: cleavage_in_vitro.

For the substance Ll.ltrB intron RNA ; ltrB +2 to +5 TGCG, the binding signal was < 10 % of WT.
